Like-named read-outs stand apart in the source and are kept apart here. Each block holds one molecule with its values, some of them ahead of it. No end group written: not given here. 5,6‑carboxyfluorescein = 5,6-carboxyfluorescein
T1: rat His-Gαi3 (rat, UniProt P08753 1-354)
T1 chain: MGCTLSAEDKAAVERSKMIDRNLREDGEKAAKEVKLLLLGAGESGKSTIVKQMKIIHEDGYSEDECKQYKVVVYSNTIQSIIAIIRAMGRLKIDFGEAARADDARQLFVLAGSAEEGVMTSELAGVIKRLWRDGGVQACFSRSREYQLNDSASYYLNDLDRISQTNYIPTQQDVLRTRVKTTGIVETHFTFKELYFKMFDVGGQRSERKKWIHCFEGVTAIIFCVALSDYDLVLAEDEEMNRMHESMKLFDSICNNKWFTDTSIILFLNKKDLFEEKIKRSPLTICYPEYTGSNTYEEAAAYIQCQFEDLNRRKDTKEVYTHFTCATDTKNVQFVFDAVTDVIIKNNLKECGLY

B1: fluorescently-labeled GIV 1671–1701 peptide (peptide)
peptide: {5,6‑carboxyfluorescein}-KTGSPGSEVVTLQQFLEESNKLTSVQIKSSS
notes: Made on MBHA resin, which would leave a C-terminal amide; source: synthetic peptide (Boc-SPPS, RP-HPLC purified)
B2: fluorescein-labeled GIV 1671–1689 peptide (peptide)
peptide: {5,6‑carboxyfluorescein}-KTGSPGSEVVTLQQFLEES-NH2
notes: as for B1
B3: fluorescein-labeled GIV 1671–1705 peptide (peptide)
peptide: {5,6‑carboxyfluorescein}-KTGSPGSEVVTLQQFLEESNKLTSVQIKSSSQENL
notes: Made on MBHA resin, which would leave a C-terminal amide; also called fluorescently-labeled GIV peptide; source: synthetic peptide (Boc-SPPS, RP-HPLC purified)
B4: untagged rat Gαi3 (natural protein, UniProt P08753 1-354, looked up)
chain: T1 chain
notes: from a pET28b plasmid containing a thrombin cleavage site; also called untagged Gαi3; unlabeled Gαi3; source: E. coli BL21(DE3); rat His-Gαi3 cleaved with agarose-immobilized thrombin, passed over HisPur Cobalt beads, gel filtration (Superdex S200)
B5: GST-GIV 1671–1705 (domain or fragment, human)
chain: KTGSPGSEVVTLQQFLEESNKLTSVQIKSSSQENL
notes: limits not spelled out in the text for this one; also called GST-fused GIV truncation construct of 35 amino acids; source: purified
B6: GST-GIV 1671–1755 (domain or fragment, human, UniProt Q3V6T2-3 1671-1755, looked up)
chain: KTGSPGSEVVTLQQFLEESNKLTSVQIKSSSQENLLDEVMKSLSVSSDFLGKDKPVSCGLARSVSGKTPGDFYDRRTTKPEFLRP
notes: source: E. coli BL21(DE3), purified (Glutathione Agarose)
B7: unlabeled GIV 1671–1701 peptide (peptide)
peptide: KTGSPGSEVVTLQQFLEESNKLTSVQIKSSS
notes: as for B1
B8: human His-GIV-CT (1660–1870) (domain or fragment, UniProt Q3V6T2-3 1660-1870, looked up)
chain: SETLESRHHKIKTGSPGSEVVTLQQFLEESNKLTSVQIKSSSQENLLDEVMKSLSVSSDFLGKDKPVSCGLARSVSGKTPGDFYDRRTTKPEFLRPGPRKTEDTYFISSAGKPTPGTQGKIKLVKESSLSRQSKDSNPYATLPRASSVISTAEGTTRRTSIHDFLTKDSRLPISVDSPPAAADSNTTAASNVDKVQESRNSKSRSREQQSS
notes: also called His-tagged GIV 1660–1870; source: E. coli BL21(DE3), purified (HisPur Cobalt resin, dialysed against PBS)
B9: fluorescein-labeled GIV 1671–1696 peptide (peptide)
peptide: {5,6‑carboxyfluorescein}-KTGSPGSEVVTLQQFLEESNKLTSVQ-NH2
notes: as for B1

Experiments:
rat His-Gαi3 [1] = target: T2, rat His-Gαi3 (Rattus norvegicus, UniProt P08753); assay: fluorescence polarization competition; format: binding
T2 construct: gene Gnai3

rat GST-Gαi3 [2] = target: T3, rat GST-Gαi3 (Rattus norvegicus, UniProt P08753); assay: AlphaScreen protein-protein binding inhibition; conditions: displacement of His-GIV-CT 1660-1870 (75 nM each protein); GDP 30 µM, 5 mM MgCl2, pH 7.4, room temperature
T3 construct: gene Gnai3

human Gαi3 = target: T4, human Gαi3 (Homo sapiens, UniProt P08754); assay: 1H-15N TROSY NMR titration, chemical shift perturbation; format: binding; conditions: GDP-bound, pH 7.0, 30 °C, 10 mM MgCl2; site SwII/α3/W258 region
T4 construct: gene GNAI3

rat GST-Gαi3 [3] = target: T3, rat GST-Gαi3; assay: AlphaScreen protein-protein binding inhibition; conditions: displacement of His-GIV-CT 1660-1870 (75 nM each protein); GDP 30 µM, 5 mM MgCl2, pH 7.4, room temperature; remark: listed apart in the source
rat His-Gαi3 [4] = target: T1, rat His-Gαi3; assay: FP
rat His-Gαi3 [5] = target: T5, rat His-Gαi3 (rat, UniProt P08753 1-354); assay: fluorescence polarisation; competition: His-Gαi3 1 µM with fluorescently-labeled GIV 1671–1701 25 nM and increasing unlabeled GIV peptide or His-GIV-CT (0.5–20 µM); buffer with 30 µM GDP; conditions: both partners purified
T5 construct: GDP-loaded in the buffers; Pull-down and FP methods name the rat protein; also called purified His-Gαi3; source: E. coli BL21(DE3), purified (HisPur Cobalt resin, buffer exchange on HiTrap Desalting)

rat His-Gαi3 [6] = target: T5, rat His-Gαi3; assay: fluorescence polarisation; fluorescently-labeled GIV peptide 25 nM, rat His-Gαi3 titrated 0.125–10 µM, room temperature; 50 mM Tris-HCl pH 7.4, 100 mM NaCl, 0.4% NP-40, 10 mM MgCl2, 5 mM EDTA, 2 mM DTT, 30 µM GDP; one-site binding model; conditions: both partners purified
rat His-Gαi3 [7] = target: T5, rat His-Gαi3; assay: pull-down; 10 µg GST or GST-GIV (~1.25 µM) immobilised on glutathione agarose beads; rat His-Gαi3 0.1–5 µM, 4 h at 4 °C; 50 mM Tris-HCl pH 7.4, 100 mM NaCl, 0.4% NP-40, 10 mM MgCl2, 5 mM EDTA, 2 mM DTT, 30 µM GDP; SDS-PAGE, Coomassie blue; conditions: both partners purified
[8] = target: B8; assay: AlphaScreen or HTRF; competition: 75 nM His-GIV-CT and 75 nM GST-Gαi3 on beads with increasing untagged Gαi3 in solution; buffer with 30 µM GDP; one-site sigmoidal inhibition curve; conditions: both partners purified
rat GST-Gαi3 [9] = target: T6, rat GST-Gαi3 (rat, UniProt P08753 1-354); assay: AlphaScreen or HTRF; His-GIV-CT on nickel-chelate donor beads, GST-Gαi3 on glutathione acceptor beads; 25–100 nM each (75 nM chosen), 10 and 5 µg/ml beads; 50 mM Tris-HCl pH 7.4, 100 mM NaCl, 0.4% NP-40, 5 mM MgCl2, 2 mM DTT, 30 µM GDP; room temperature, 2.5 h; conditions: both partners purified
T6 construct: source: E. coli BL21(DE3), purified (Glutathione Agarose, buffer exchange on HiTrap Desalting)

T3 sequence (Q3V6T2 1660-1870 partner, one chain of several): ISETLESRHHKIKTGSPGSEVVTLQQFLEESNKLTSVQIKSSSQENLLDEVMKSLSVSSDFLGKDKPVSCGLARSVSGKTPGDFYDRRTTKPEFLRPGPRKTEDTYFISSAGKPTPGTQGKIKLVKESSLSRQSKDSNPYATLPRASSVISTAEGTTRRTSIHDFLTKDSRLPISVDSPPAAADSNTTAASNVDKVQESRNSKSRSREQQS
T4 sequence (P08754 whole entry): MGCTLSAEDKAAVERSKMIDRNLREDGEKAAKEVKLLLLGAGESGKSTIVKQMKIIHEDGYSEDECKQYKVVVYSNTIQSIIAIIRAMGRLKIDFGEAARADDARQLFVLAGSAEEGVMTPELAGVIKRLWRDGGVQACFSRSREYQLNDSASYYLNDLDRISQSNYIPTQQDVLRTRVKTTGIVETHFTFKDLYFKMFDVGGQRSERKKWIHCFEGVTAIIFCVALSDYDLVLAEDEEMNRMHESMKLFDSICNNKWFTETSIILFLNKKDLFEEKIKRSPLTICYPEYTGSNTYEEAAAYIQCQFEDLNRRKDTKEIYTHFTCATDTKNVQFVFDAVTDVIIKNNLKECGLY

IC50 (rat His-Gαi3 [1]; read-out: IC50): ~5 µM
Molecule: O=C(O)C1=CC(=C(c2ccc(O)c(C(=O)O)c2)c2ccc(O)c(C(=O)O)c2)C=CC1=O [ATA]
% inhibition at 10 μM (rat GST-Gαi3 [2]): ATA and NF023 efficiently inhibited Gαi3-GIV binding as determined by AlphaScreen

IC50 (rat His-Gαi3 [1]; read-out: IC50): ~5 µM
Molecule: O=C(Nc1cccc(C(=O)Nc2ccc(S(=O)(=O)O)c3cc(S(=O)(=O)O)cc(S(=O)(=O)O)c23)c1)Nc1cccc(C(=O)Nc2ccc(S(=O)(=O)O)c3cc(S(=O)(=O)O)cc(S(=O)(=O)O)c23)c1 [NF023]
1H-15N TROSY NMR titration, chemical shift perturbation (human Gαi3): revealed significant Chemical Shift Perturbations (CSP) in only a fraction
% inhibition at 10 μM (rat GST-Gαi3 [2]): ATA and NF023 efficiently inhibited Gαi3-GIV binding as determined by AlphaScreen

Molecule: O=C(Nc1cc(C(=O)Nc2ccc(S(=O)(=O)O)cc2S(=O)(=O)O)cc(C(=O)Nc2ccc(S(=O)(=O)O)cc2S(=O)(=O)O)c1)Nc1cc(C(=O)Nc2ccc(S(=O)(=O)O)cc2S(=O)(=O)O)cc(C(=O)Nc2ccc(S(=O)(=O)O)cc2S(=O)(=O)O)c1 [NF449]
IC50 (rat His-Gαi3 [1]; displacement of fluorescein-GIV 1671-1701 peptide (25 nM), GDP 30 µM, 10 mM MgCl2, pH 7.4, room temperature): NF449 inhibits Gαi3-GIV binding with a potency similar to that of NF023

IC50 (rat His-Gαi3 [1]; read-out: IC50): ~50 µM
Molecule: Cc1ccc(C(=O)Nc2ccc(S(=O)(=O)O)c3cc(S(=O)(=O)O)cc(S(=O)(=O)O)c23)cc1NC(=O)c1cccc(NC(=O)Nc2cccc(C(=O)Nc3cc(C(=O)Nc4ccc(S(=O)(=O)O)c5cc(S(=O)(=O)O)cc(S(=O)(=O)O)c45)ccc3C)c2)c1 [suramin]
AlphaScreen protein-protein binding inhibition (rat GST-Gαi3 [3]): suramin is a less potent inhibitor than NF023 in the same AlphaScreen

Molecule: B1
Kd (rat His-Gαi3 [4]): 460 nM
binding result (rat His-Gαi3 [5]): binds

Molecule: B2
Kd (rat His-Gαi3 [6]): ~1000 nM

binding result (rat His-Gαi3 [7]): binds
Molecule: KTGSPGSEVVTLQQFLEES (domain or fragment, human, source: purified) [GST-GIV 1671–1689]

binding result (rat His-Gαi3 [7]): binds
Molecule: KTGSPGSEVVTLQQFLEESNKLTSVQ (domain or fragment, human, source: purified) [GST-GIV 1671–1696]

Molecule: B3
Kd (rat His-Gαi3 [6]): ~500 nM
Kd (rat His-Gαi3 [4]): 560 nM

Molecule: B4
IC50 [8]: ~1000 nM

Molecule: B5
binding result (rat His-Gαi3 [7]): binds

Molecule: B6
binding result (rat His-Gαi3 [7]): binds

Molecule: B7
binding result (rat His-Gαi3 [5]): binds

binding result (rat His-Gαi3 [7]): binds
Molecule: KTGSPGSEVVTLQQFLEESNKLTSVQIKSSS (domain or fragment, human, source: purified) [GST-fused GIV 1671–1701]

Molecule: B8
binding result (rat GST-Gαi3 [9]): binds
binding result (rat His-Gαi3 [5]): binds

Molecule: B9
Kd (rat His-Gαi3 [6]): ~650 nM
